From patent US7202329 (MYRIAD GENETICS, dated 2007)

How the values were obtained:
[1] = molecular target: T1, VPS28 protein (aa 27-221) (human, UniProt Q9UK41 27-221); assay: yeast two-hybrid, breast and prostate cancer library, bait Tsg101 240-391
T1 sequence (looked up): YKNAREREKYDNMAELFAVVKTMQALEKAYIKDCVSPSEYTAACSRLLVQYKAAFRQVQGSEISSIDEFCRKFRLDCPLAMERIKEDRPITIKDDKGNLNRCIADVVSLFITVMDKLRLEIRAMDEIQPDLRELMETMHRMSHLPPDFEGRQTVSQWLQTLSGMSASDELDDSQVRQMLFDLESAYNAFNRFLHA

[2] = molecular target: T2, mitotic spindle coiled-coil related protein (aa 668-895) (UniProt Q96R06 668-895); assay: yeast two-hybrid
T2 construct: range 668-895
T2 sequence (looked up): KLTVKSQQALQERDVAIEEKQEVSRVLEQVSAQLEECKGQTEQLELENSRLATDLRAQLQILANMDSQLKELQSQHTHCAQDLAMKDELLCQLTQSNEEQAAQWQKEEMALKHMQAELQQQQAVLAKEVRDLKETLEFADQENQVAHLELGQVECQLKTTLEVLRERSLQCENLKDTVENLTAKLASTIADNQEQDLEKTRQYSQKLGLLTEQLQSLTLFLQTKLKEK

[3] = molecular target: T3, GTPase-activating protein 1 (aa 1419-1657) (UniProt P46940 1419-1657); assay: yeast two-hybrid
T3 construct: range 1419-1657; also called IQGAP1; IQGAP
T3 sequence (looked up): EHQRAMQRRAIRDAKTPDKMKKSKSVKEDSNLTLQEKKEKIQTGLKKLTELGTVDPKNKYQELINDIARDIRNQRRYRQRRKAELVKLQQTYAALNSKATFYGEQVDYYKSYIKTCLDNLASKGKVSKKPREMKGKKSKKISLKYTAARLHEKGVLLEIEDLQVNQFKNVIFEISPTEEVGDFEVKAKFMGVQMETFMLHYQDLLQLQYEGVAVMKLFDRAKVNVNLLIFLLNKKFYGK

[4] = molecular target: T4, intersectin 1 (aa 210-633) (UniProt Q15811 210-633); assay: yeast two-hybrid
T4 construct: range 210-633
T4 sequence (looked up): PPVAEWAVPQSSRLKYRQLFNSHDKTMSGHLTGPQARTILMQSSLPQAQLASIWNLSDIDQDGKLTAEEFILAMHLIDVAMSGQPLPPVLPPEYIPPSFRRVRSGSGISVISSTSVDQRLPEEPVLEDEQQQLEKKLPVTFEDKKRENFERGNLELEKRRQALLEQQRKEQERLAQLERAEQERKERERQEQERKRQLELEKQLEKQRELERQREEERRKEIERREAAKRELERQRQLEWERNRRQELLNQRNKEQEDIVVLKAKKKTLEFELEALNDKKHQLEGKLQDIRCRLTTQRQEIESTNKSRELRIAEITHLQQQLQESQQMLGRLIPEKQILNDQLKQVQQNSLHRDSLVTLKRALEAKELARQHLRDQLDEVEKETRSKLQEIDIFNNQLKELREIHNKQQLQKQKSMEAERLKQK

[5] = molecular target: T5, intersectin 1 (aa 387-611) (UniProt Q15811 387-611); assay: yeast two-hybrid
T5 construct: range 387-611
T5 sequence (looked up): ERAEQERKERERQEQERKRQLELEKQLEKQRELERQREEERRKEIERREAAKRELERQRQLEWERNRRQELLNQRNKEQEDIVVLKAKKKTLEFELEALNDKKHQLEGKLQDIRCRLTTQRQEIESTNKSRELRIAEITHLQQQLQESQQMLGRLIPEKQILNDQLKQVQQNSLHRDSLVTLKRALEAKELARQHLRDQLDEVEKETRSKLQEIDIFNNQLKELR

[6] = molecular target: T6, GTPase-activating protein 1 (aa 1299-1555) (UniProt P46940 1299-1555); assay: yeast two-hybrid
T6 construct: range 1299-1555; also called IQGAP1; IQGAP
T6 sequence (looked up): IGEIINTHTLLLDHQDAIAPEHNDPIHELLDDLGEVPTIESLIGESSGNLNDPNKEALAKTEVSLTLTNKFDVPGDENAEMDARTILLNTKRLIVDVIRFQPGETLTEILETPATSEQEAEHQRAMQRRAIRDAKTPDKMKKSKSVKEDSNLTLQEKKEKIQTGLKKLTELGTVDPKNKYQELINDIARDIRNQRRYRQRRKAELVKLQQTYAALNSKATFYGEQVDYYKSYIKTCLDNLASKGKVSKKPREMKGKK

[7] = molecular target: T7, GTPase-activating protein 1 (aa 1308-1606) (UniProt P46940 1308-1606); assay: yeast two-hybrid
T7 construct: range 1308-1606; also called IQGAP1; IQGAP
T7 sequence (looked up): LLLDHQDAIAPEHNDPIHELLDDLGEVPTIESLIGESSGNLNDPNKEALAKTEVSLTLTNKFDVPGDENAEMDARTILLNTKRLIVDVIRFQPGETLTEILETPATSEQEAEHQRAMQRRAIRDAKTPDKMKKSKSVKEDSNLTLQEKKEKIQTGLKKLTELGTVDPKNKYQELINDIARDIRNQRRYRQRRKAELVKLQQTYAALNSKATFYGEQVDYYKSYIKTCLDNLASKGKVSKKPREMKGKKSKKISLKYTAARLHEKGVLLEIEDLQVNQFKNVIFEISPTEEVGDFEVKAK

[8] = molecular target: T8, GTPase-activating protein 1 (aa 1413-1567) (UniProt P46940 1413-1567); assay: yeast two-hybrid
T8 construct: range 1413-1567; also called IQGAP1; IQGAP
T8 sequence (looked up): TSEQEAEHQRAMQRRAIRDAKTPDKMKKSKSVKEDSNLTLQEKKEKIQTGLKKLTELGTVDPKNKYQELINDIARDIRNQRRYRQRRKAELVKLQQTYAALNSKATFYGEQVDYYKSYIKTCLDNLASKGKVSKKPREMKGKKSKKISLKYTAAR

pallid (aa 21-172) = molecular target: T9, pallid (aa 21-172) (UniProt Q9UL45 21-172); assay: yeast two-hybrid
T9 construct: range 21-172
T9 sequence (looked up): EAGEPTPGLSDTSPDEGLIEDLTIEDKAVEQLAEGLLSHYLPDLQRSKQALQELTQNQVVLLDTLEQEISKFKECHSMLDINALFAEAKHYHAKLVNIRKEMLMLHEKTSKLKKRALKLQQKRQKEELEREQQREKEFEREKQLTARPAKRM

Measured: binding result

B1: Tsg101 (aa 240-391) (other, human, UniProt Q99816 240-390, looked up)
chain: WRMKEEMDRAQAELNALKRTEEDLKKGHQKLEEMVTRLDQEVAEVDKNIELLKKKDEELSSALEKMENQSENNDIDEVIIPTAPLYKQILNLYAEENAIEDTIFYLGEALRRGVIDLDVFLKHVRLLSRKQFQLRALMQKARKTAGLSDLY
notes: range 240-391; also called C-terminal fragment of Tsg101; amino acid residues 240-390
binds: [1] | [2] | [3] | [4] | [5] | [6] | [7] | [8] | pallid (aa 21-172)
